The Km is the substrate concentration at which the rate is half of its maximum. Broadly, the kcat is the maximal rate divided by the concentration of active sites. The kcat/Km is the turnover number divided by the Michaelis constant.

These results are taken from PMC3458741, “Studies on the substrate specificity of a GDP-mannose pyrophosphorylase from Salmonella enterica” (Beilstein Journal of Organic Chemistry, 2012).

Holding throughout (assay): purified protein
Conditions in all cases: co-substrate GTP

Data set [1] concerns COC[C@H]1O[C@H](OP(=O)(O)O)[C@@H](O)[C@@H](O)[C@@H]1O.
Description: (§1) colorimetric pyrophosphate detection assay on GDP-mannose pyrophosphorylase (GDP-ManPP)
For data set [2], the system named is CO[C@@H]1[C@@H](OP(=O)(O)O)O[C@H](CO)[C@@H](O)[C@@H]1O.
Description: as §1
The subject of data set [3] is CO[C@@H]1[C@H](O)[C@@H](OP(=O)(O)O)O[C@H](CO)[C@H]1O.
Description: as §1
The test system of data set [4] is CO[C@H]1[C@H](O)[C@H](O)[C@@H](OP(=O)(O)O)O[C@@H]1CO.
Description: as §1
Data set [5] relates to C[C@H]1O[C@H](OP(=O)(O)O)[C@@H](O)[C@@H](O)[C@@H]1O.
Description: as §1
For data set [6], the system named is O=P(O)(O)O[C@H]1O[C@H](CO)[C@@H](O)[C@H](O)[C@@H]1O.
Description: as §1

In the case of “GDP-mannose pyrophosphorylase (GDP-ManPP) (Salmonella enterica subsp. enterica serovar Typhimurium str. LT2)”, the Km in data set [1] amounted to 120 ± 18 µM; in data set [2], 4000 ± 1100 µM; in data set [3], 200 ± 72 µM; in data set [4], 3400 ± 870 µM; in data set [5] it was 70 ± 13 µM; in data set [6] it was 40 ± 6 µM. Moreover, the catalytic constant (kcat) in data set [1] is 0.45 ± 0.0167 s⁻¹; in data set [2], 1.17 ± 0.183 s⁻¹; in data set [3] it was 0.0867 ± 0.0117 s⁻¹; in data set [4] it was 0.517 ± 0.0783 s⁻¹; in data set [5], 5 ± 0.217 s⁻¹; in data set [6], 6 ± 0.267 s⁻¹. Besides, the kcat/Km was 3830 ± 1000 M⁻¹ s⁻¹ in data set [1]; 333 ± 167 M⁻¹ s⁻¹ in data set [2]; 433 ± 16.7 M⁻¹ s⁻¹ in data set [3]; 150 ± 83.3 M⁻¹ s⁻¹ in data set [4]; 66700 ± 16700 M⁻¹ s⁻¹ in data set [5]; 150000 ± 50000 M⁻¹ s⁻¹ in data set [6].
